# Data from article PMC9972960.
# Assays:
# [1] = target: purified vaccine protein with HA from influenza A/PR/8/1934 (H1N1), with the C-terminal foldon trimerization domain (influenza A/PR/8/1934 (H1N1) | T4 phage) (UniProt P03452); assay: SEC
# [2] = target: purified vaccine protein with HA from influenza A/PR/8/1934 (H1N1), with the C-terminal foldon trimerization domain (influenza A/PR/8/1934 (H1N1) | T4 phage) (UniProt P03452); assay: native gel or EMSA
substance,measurement,setting,value
"purified vaccine protein with HA from influenza A/PR/8/1934 (H1N1), with the C-terminal foldon trimerization domain (from UniProt P03452)",stoichiometry N,[1],3
same,stoichiometry N,[2],3
